Measured values reported in US20050261196A1 (UNIVERSITY OF CHICAGO, published 2005).
Where no end group is shown, it is not given here. [ ]: non-standard residue; d: D form.

Assays:
D-PIK(int.) = system: T1, D-PIK(int.)
T1 sequence: RKKYKYRRK

D-PIK = system: T2, D-PIK
T2 sequence: RKKYKYRRK

D-PIK(reversed) = system: T3, D-PIK(reversed)
T3 sequence: KRRYKYKKR

[1] = biological target: myosin light chain kinase (215 kDa MLCK expressed by Caco-2 cells) (UniProt Q15746 1-1914, limits assumed); test: cell-based or functional assay
myosin light chain kinase (215 kDa MLCK expressed by Caco-2 cells), sequence (Q15746 whole entry): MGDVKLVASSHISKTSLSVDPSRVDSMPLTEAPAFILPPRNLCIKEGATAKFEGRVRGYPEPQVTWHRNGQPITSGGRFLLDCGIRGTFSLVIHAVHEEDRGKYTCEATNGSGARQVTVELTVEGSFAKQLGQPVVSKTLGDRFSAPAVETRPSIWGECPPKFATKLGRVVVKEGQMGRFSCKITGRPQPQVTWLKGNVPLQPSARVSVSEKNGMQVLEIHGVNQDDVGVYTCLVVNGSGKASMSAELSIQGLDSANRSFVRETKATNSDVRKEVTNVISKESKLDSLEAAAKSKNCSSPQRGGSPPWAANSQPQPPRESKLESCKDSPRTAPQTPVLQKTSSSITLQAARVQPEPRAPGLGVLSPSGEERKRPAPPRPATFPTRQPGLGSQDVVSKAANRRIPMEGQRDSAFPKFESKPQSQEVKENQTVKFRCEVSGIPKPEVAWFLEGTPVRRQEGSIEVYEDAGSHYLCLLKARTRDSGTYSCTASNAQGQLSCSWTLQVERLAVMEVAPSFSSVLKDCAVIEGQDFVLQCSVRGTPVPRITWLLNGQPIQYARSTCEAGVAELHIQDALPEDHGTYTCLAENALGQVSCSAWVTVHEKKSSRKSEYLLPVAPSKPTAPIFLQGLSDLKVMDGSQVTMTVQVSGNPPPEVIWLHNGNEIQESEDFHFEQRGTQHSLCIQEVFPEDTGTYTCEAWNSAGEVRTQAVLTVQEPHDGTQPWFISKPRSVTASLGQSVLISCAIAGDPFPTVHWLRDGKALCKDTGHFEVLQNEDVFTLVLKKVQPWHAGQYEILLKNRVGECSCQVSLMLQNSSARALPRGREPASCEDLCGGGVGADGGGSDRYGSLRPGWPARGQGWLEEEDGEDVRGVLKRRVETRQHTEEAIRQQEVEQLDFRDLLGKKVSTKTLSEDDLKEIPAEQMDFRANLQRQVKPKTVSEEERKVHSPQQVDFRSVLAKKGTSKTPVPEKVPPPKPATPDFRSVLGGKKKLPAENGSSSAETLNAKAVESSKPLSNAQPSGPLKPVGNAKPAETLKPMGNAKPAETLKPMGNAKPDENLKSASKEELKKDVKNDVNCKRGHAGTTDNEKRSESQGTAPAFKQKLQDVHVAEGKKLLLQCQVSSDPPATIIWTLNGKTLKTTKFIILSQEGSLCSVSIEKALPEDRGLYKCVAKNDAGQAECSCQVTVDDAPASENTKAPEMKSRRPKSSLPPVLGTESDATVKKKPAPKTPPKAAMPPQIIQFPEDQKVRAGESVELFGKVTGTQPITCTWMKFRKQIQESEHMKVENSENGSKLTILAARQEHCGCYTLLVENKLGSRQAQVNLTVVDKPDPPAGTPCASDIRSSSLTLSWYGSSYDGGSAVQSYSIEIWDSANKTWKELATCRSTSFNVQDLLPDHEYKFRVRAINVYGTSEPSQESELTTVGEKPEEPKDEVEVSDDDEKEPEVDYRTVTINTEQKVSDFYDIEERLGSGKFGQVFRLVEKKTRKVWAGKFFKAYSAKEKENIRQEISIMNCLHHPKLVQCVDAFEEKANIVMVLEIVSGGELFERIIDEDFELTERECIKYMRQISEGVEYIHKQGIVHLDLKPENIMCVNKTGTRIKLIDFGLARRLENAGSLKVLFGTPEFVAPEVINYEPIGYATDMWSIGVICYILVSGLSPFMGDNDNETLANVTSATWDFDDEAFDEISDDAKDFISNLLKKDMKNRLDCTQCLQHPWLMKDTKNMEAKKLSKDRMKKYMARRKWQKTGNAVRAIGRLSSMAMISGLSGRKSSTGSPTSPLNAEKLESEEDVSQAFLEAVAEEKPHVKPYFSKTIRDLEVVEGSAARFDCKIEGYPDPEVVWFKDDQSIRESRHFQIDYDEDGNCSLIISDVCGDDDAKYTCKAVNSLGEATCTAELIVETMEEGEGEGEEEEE

Calcium/calmodulin dependent protein kinase II (CaMPKII)
CaMPKII activity (phosphorylation of plate-bound pseudo-substrate peptide, anti-phosphoserine ELISA) (D-PIK(int.)): Neither D-PIK nor D-PIK(reversed) nor D-PIK(int) demonstrated striking inhibitory effects toward PKA or CaMPKII at concentrations up to 5 mM
CaMPKII activity (phosphorylation of plate-bound pseudo-substrate peptide, anti-phosphoserine ELISA) (D-PIK): Neither D-PIK nor D-PIK(reversed) nor D-PIK(int) demonstrated striking inhibitory effects toward PKA or CaMPKII at concentrations up to 5 mM
CaMPKII activity (phosphorylation of plate-bound pseudo-substrate peptide, anti-phosphoserine ELISA) (D-PIK(reversed)): Neither D-PIK nor D-PIK(reversed) nor D-PIK(int) demonstrated striking inhibitory effects toward PKA or CaMPKII at concentrations up to 5 mM

[dR][dK][dK][dY][dK][dY][dR][dR][dK]-NH2 [D-PIK]
Δ TER (elevation in transepithelial resistance of Caco-2 monolayers, 500 µM peptide, one hour) [1]: 41%

[dK][dR][dR][dY][dK][dY][dK][dK][dR]-NH2 [D-PIK(reversed)]
Δ TER (elevation in transepithelial resistance of Caco-2 monolayers, 500 µM peptide, one hour) [1]: 50%

RKKYKYRRK-NH2 (not fully specified; printed as Arg-Lys-Lys-Tyr-Lys-Tyr-Arg-Arg-Lys) [PIK (SEQ ID NO: 12)]
Δ TER (elevation in transepithelial resistance of Caco-2 monolayers, 500 µM peptide, one hour) [1]: 45%

RKK[dY][dK][dY]RRK-NH2 [D-PIK(int.)]
Δ TER (elevation in transepithelial resistance of Caco-2 monolayers, 500 µM peptide, one hour) [1]: 47%
